# Source: US20090163411A1 (BOLDER BIOTECHNOLOGY, published 2009)
# B1: sFlt-1(3) G26C (receptor)
# chain: CSKLKDPELSLKGTQHIMQAGQTLHLQCRGEAAHKWSLPEMVSKESERLSITKSACGRNGKQFCSTLTLNTAQANHTGFYSCKYLAVPTSKKKETESAIYIFISDTGRPFVEMYSEIPEIIHMTEGRELVIPCRVTSPNITVTLKKFPLDTLIPDGKRIIWDSRKGFIISNATYKEIGLLTCEATVNGHLYKTNYLTHRQTNTIIDVQISTPRPVKLLRGHTLVLNCTATTPLNTRVQMTWSYPDEKNKRASVRRRIDQSNSHANIFYSVLTIDKMQNKDKGLYTCRVRSGPSFKSVNTSVHIYDKAFITVKH
# B2: 20 kDa-Cys-Flt-1(3) G26C (receptor)
# chain: CSKLKDPELSLKGTQHIMQAGQTLHLQCRGEAAHKWSLPEMVSKESERLSITKSACGRNGKQFCSTLTLNTAQANHTGFYSCKYLAVPTSKKKETESAIYIFISDTGRPFVEMYSEIPEIIHMTEGRELVIPCRVTSPNITVTLKKFPLDTLIPDGKRIIWDSRKGFIISNATYKEIGLLTCEATVNGHLYKTNYLTHRQTNTIIDVQISTPRPVKLLRGHTLVLNCTATTPLNTRVQMTWSYPDEKNKRASVRRRIDQSNSHANIFYSVLTIDKMQNKDKGLYTCRVRSGPSFKSVNTSVHIYDKAFITVKH
# modifications: 20 kDa maleimide-PEG on Cys 26
# B3: 20 kDa-Cys-Flt-1(3) N164C (receptor)
# chain: SKLKDPELSLKGTQHIMQAGQTLHLQCRGEAAHKWSLPEMVSKESERLSITKSACGRNGKQFCSTLTLNTAQANHTGFYSCKYLAVPTSKKKETESAIYIFISDTGRPFVEMYSEIPEIIHMTEGRELVIPCRVTSPCITVTLKKFPLDTLIPDGKRIIWDSRKGFIISNATYKEIGLLTCEATVNGHLYKTNYLTHRQTNTIIDVQISTPRPVKLLRGHTLVLNCTATTPLNTRVQMTWSYPDEKNKRASVRRRIDQSNSHANIFYSVLTIDKMQNKDKGLYTCRVRSGPSFKSVNTSVHIYDKAFITVKH
# modifications: 20 kDa maleimide-PEG on Cys 164
# B4: sFlt-1(3) N196C (receptor)
# chain: SKLKDPELSLKGTQHIMQAGQTLHLQCRGEAAHKWSLPEMVSKESERLSITKSACGRNGKQFCSTLTLNTAQANHTGFYSCKYLAVPTSKKKETESAIYIFISDTGRPFVEMYSEIPEIIHMTEGRELVIPCRVTSPNITVTLKKFPLDTLIPDGKRIIWDSRKGFIISCATYKEIGLLTCEATVNGHLYKTNYLTHRQTNTIIDVQISTPRPVKLLRGHTLVLNCTATTPLNTRVQMTWSYPDEKNKRASVRRRIDQSNSHANIFYSVLTIDKMQNKDKGLYTCRVRSGPSFKSVNTSVHIYDKAFITVKH
# B5: 20 kDa-Cys-Flt-1(3) N196C (receptor)
# chain: SKLKDPELSLKGTQHIMQAGQTLHLQCRGEAAHKWSLPEMVSKESERLSITKSACGRNGKQFCSTLTLNTAQANHTGFYSCKYLAVPTSKKKETESAIYIFISDTGRPFVEMYSEIPEIIHMTEGRELVIPCRVTSPNITVTLKKFPLDTLIPDGKRIIWDSRKGFIISCATYKEIGLLTCEATVNGHLYKTNYLTHRQTNTIIDVQISTPRPVKLLRGHTLVLNCTATTPLNTRVQMTWSYPDEKNKRASVRRRIDQSNSHANIFYSVLTIDKMQNKDKGLYTCRVRSGPSFKSVNTSVHIYDKAFITVKH
# modifications: 20 kDa maleimide-PEG on Cys 196
# B6: 20 kDa-Cys-Flt-1(3) H338C (receptor)
# chain: SKLKDPELSLKGTQHIMQAGQTLHLQCRGEAAHKWSLPEMVSKESERLSITKSACGRNGKQFCSTLTLNTAQANHTGFYSCKYLAVPTSKKKETESAIYIFISDTGRPFVEMYSEIPEIIHMTEGRELVIPCRVTSPNITVTLKKFPLDTLIPDGKRIIWDSRKGFIISNATYKEIGLLTCEATVNGHLYKTNYLTHRQTNTIIDVQISTPRPVKLLRGHTLVLNCTATTPLNTRVQMTWSYPDEKNKRASVRRRIDQSNSHANIFYSVLTIDKMQNKDKGLYTCRVRSGPSFKSVNTSVHIYDKAFITVKC
# modifications: 20 kDa maleimide-PEG on Cys 338
# B7: sFlt-1(3) N100C (receptor)
# chain: SKLKDPELSLKGTQHIMQAGQTLHLQCRGEAAHKWSLPEMVSKESERLSITKSACGRNGKQFCSTLTLNTAQACHTGFYSCKYLAVPTSKKKETESAIYIFISDTGRPFVEMYSEIPEIIHMTEGRELVIPCRVTSPNITVTLKKFPLDTLIPDGKRIIWDSRKGFIISNATYKEIGLLTCEATVNGHLYKTNYLTHRQTNTIIDVQISTPRPVKLLRGHTLVLNCTATTPLNTRVQMTWSYPDEKNKRASVRRRIDQSNSHANIFYSVLTIDKMQNKDKGLYTCRVRSGPSFKSVNTSVHIYDKAFITVKH
# B8: sFlt-1(3) H338C (receptor)
# chain: SKLKDPELSLKGTQHIMQAGQTLHLQCRGEAAHKWSLPEMVSKESERLSITKSACGRNGKQFCSTLTLNTAQANHTGFYSCKYLAVPTSKKKETESAIYIFISDTGRPFVEMYSEIPEIIHMTEGRELVIPCRVTSPNITVTLKKFPLDTLIPDGKRIIWDSRKGFIISNATYKEIGLLTCEATVNGHLYKTNYLTHRQTNTIIDVQISTPRPVKLLRGHTLVLNCTATTPLNTRVQMTWSYPDEKNKRASVRRRIDQSNSHANIFYSVLTIDKMQNKDKGLYTCRVRSGPSFKSVNTSVHIYDKAFITVKC
# B9: 20 kDa-Cys-Flt-1(3) D31C (receptor)
# chain: SKLKCPELSLKGTQHIMQAGQTLHLQCRGEAAHKWSLPEMVSKESERLSITKSACGRNGKQFCSTLTLNTAQANHTGFYSCKYLAVPTSKKKETESAIYIFISDTGRPFVEMYSEIPEIIHMTEGRELVIPCRVTSPNITVTLKKFPLDTLIPDGKRIIWDSRKGFIISNATYKEIGLLTCEATVNGHLYKTNYLTHRQTNTIIDVQISTPRPVKLLRGHTLVLNCTATTPLNTRVQMTWSYPDEKNKRASVRRRIDQSNSHANIFYSVLTIDKMQNKDKGLYTCRVRSGPSFKSVNTSVHIYDKAFITVKH
# modifications: 20 kDa maleimide-PEG on Cys 31
# B10: 20 kDa-Cys-Flt-1(3) N323C (receptor)
# chain: SKLKDPELSLKGTQHIMQAGQTLHLQCRGEAAHKWSLPEMVSKESERLSITKSACGRNGKQFCSTLTLNTAQANHTGFYSCKYLAVPTSKKKETESAIYIFISDTGRPFVEMYSEIPEIIHMTEGRELVIPCRVTSPNITVTLKKFPLDTLIPDGKRIIWDSRKGFIISNATYKEIGLLTCEATVNGHLYKTNYLTHRQTNTIIDVQISTPRPVKLLRGHTLVLNCTATTPLNTRVQMTWSYPDEKNKRASVRRRIDQSNSHANIFYSVLTIDKMQNKDKGLYTCRVRSGPSFKSVCTSVHIYDKAFITVKH
# modifications: 20 kDa maleimide-PEG on Cys 323
# B11: sFlt-1(3) N323C (receptor)
# chain: SKLKDPELSLKGTQHIMQAGQTLHLQCRGEAAHKWSLPEMVSKESERLSITKSACGRNGKQFCSTLTLNTAQANHTGFYSCKYLAVPTSKKKETESAIYIFISDTGRPFVEMYSEIPEIIHMTEGRELVIPCRVTSPNITVTLKKFPLDTLIPDGKRIIWDSRKGFIISNATYKEIGLLTCEATVNGHLYKTNYLTHRQTNTIIDVQISTPRPVKLLRGHTLVLNCTATTPLNTRVQMTWSYPDEKNKRASVRRRIDQSNSHANIFYSVLTIDKMQNKDKGLYTCRVRSGPSFKSVCTSVHIYDKAFITVKH
# B12: sFlt-1(3) D31C (receptor)
# chain: SKLKCPELSLKGTQHIMQAGQTLHLQCRGEAAHKWSLPEMVSKESERLSITKSACGRNGKQFCSTLTLNTAQANHTGFYSCKYLAVPTSKKKETESAIYIFISDTGRPFVEMYSEIPEIIHMTEGRELVIPCRVTSPNITVTLKKFPLDTLIPDGKRIIWDSRKGFIISNATYKEIGLLTCEATVNGHLYKTNYLTHRQTNTIIDVQISTPRPVKLLRGHTLVLNCTATTPLNTRVQMTWSYPDEKNKRASVRRRIDQSNSHANIFYSVLTIDKMQNKDKGLYTCRVRSGPSFKSVNTSVHIYDKAFITVKH
# B13: Wild type sFlt-1(3) (receptor)
# chain: SKLKDPELSLKGTQHIMQAGQTLHLQCRGEAAHKWSLPEMVSKESERLSITKSACGRNGKQFCSTLTLNTAQANHTGFYSCKYLAVPTSKKKETESAIYIFISDTGRPFVEMYSEIPEIIHMTEGRELVIPCRVTSPNITVTLKKFPLDTLIPDGKRIIWDSRKGFIISNATYKEIGLLTCEATVNGHLYKTNYLTHRQTNTIIDVQISTPRPVKLLRGHTLVLNCTATTPLNTRVQMTWSYPDEKNKRASVRRRIDQSNSHANIFYSVLTIDKMQNKDKGLYTCRVRSGPSFKSVNTSVHIYDKAFITVKH
# B14: 20 kDa-Cys-Flt-1(3) N100C (receptor)
# chain: SKLKDPELSLKGTQHIMQAGQTLHLQCRGEAAHKWSLPEMVSKESERLSITKSACGRNGKQFCSTLTLNTAQACHTGFYSCKYLAVPTSKKKETESAIYIFISDTGRPFVEMYSEIPEIIHMTEGRELVIPCRVTSPNITVTLKKFPLDTLIPDGKRIIWDSRKGFIISNATYKEIGLLTCEATVNGHLYKTNYLTHRQTNTIIDVQISTPRPVKLLRGHTLVLNCTATTPLNTRVQMTWSYPDEKNKRASVRRRIDQSNSHANIFYSVLTIDKMQNKDKGLYTCRVRSGPSFKSVNTSVHIYDKAFITVKH
# modifications: 20 kDa maleimide-PEG on Cys 100
# B15: Wild type sFlt-1(fl) (receptor)
# chain: SKLKDPELSLKGTQHIMQAGQTLHLQCRGEAAHKWSLPEMVSKESERLSITKSACGRNGKQFCSTLTLNTAQANHTGFYSCKYLAVPTSKKKETESAIYIFISDTGRPFVEMYSEIPEIIHMTEGRELVIPCRVTSPNITVTLKKFPLDTLIPDGKRIIWDSRKGFIISNATYKEIGLLTCEATVNGHLYKTNYLTHRQTNTIIDVQISTPRPVKLLRGHTLVLNCTATTPLNTRVQMTWSYPDEKNKRASVRRRIDQSNSHANIFYSVLTIDKMQNKDKGLYTCRVRSGPSFKSVNTSVHIYDKAFITVKHRKQQVLETVAGKRSYRLSMKVKAFPSPEVVWLKDGLPATEKSARYLTRGYSLIIKDVTEEDAGNYTILLSIKQSNVFKNLTATLIVNVKPQIYEKAVSSFPDPALYPLGSRQILTCTAYGIPQPTIKWFWHPCNHNHSEARCDFCSNNEESFILDADSNMGNRIESITQRMAIIEGKNKMASTLVVADSRISGIYICIASNKVGTVGRNISFYITDVPNGFHVNLEKMPTEGEDLKLSCTVNKFLYRDVTWILLRTVNNRTMHYSISKQKMAITKEHSITLNLTIMNVSLQDSGTYACRARNVYTGEEILQKKEITIR
# Molecular target: Recombinant Human Vascular Endothelial Growth Factor (rhVEGF) (human, UniProt P15692-4 27-191, limits assumed)
# Assay: cell-based or functional assay
# Recombinant Human Vascular Endothelial Growth Factor (rhVEGF), sequence (P15692 other isoform, or with tags, fused parts or gaps limits assumed): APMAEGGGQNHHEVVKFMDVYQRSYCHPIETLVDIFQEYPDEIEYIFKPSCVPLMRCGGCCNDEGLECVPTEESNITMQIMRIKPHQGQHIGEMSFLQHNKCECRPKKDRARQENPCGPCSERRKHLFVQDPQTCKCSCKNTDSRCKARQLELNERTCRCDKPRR
row,Binder,"Ave Ec50's (ng/ml); inhibition of VEGF-stimulated HUVEC proliferation, BrdU Cell Proliferation assay"
1,B1,43 ng/mL
2,B2,54 ng/mL
3,B3,75 ng/mL
4,B4,88 ng/mL
5,B5,59 ng/mL
6,B6,19 ng/mL
7,B7,53 ng/mL
8,B8,55 ng/mL
9,B9,80 ng/mL
10,B10,40 ng/mL
11,B11,32 ng/mL
12,B12,60 ng/mL
13,B13,36 ng/mL
14,B14,66 ng/mL
15,B15,76 ng/mL
